Laboratory results: article PMC10397247
Each block holds one binder with its values, some of them ahead of it.

Columns and labels:
Test in all cases: two-hybrid library CCmax;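 note: natural log of median RNA to DNA barcode read ratio; higher means stronger binding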
APC2724-AA = target: T1, APC2724-AA; details: mean of both orientations
T1 chain: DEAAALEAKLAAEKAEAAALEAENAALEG

APC9806-AA = target: T2, APC9806-AA; details: mean of both orientations
T2 chain: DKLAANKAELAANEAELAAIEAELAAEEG

APC7524-AA = target: T3, APC7524-AA; details: mean of both orientations
T3 chain: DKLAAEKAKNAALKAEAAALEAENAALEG

APC3265-AA = target: T4, APC3265-AA; details: mean of both orientations
T4 chain: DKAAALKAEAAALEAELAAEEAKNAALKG

APC4336-AA = target: T5, APC4336-AA; details: mean of both orientations
T5 chain: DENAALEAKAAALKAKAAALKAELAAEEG

APC6088-AA = target: T6, APC6088-AA; details: mean of both orientations
T6 chain: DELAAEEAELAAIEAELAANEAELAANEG

APC542-AA = target: T7, APC542-AA; details: mean of both orientations
T7 chain: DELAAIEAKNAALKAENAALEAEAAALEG

APC2811-AA = target: T8, APC2811-AA; details: mean of both orientations
T8 chain: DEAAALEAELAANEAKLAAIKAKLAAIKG

APC5009-AA = target: T9, APC5009-AA; details: mean of both orientations
T9 chain: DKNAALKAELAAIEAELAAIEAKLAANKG

APC2556-AA = target: T10, APC2556-AA; details: mean of both orientations
T10 chain: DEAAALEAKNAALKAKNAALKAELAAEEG

APC3881-AA = target: T11, APC3881-AA; details: mean of both orientations
T11 chain: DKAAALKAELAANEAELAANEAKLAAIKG

APC2543-AA = target: T12, APC2543-AA; details: mean of both orientations
T12 chain: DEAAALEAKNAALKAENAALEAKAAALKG

APC9182-AA = target: T13, APC9182-AA; details: mean of both orientations
T13 chain: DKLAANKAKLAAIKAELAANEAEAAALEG

APC8516-AA = target: T14, APC8516-AA; details: mean of both orientations
T14 chain: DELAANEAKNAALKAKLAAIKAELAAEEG

APC4100-AA = target: T15, APC4100-AA; details: mean of both orientations
T15 chain: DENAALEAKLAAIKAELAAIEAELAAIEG

APC9291-AA = target: T16, APC9291-AA; details: mean of both orientations
T16 chain: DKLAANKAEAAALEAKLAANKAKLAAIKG

APC2474-AA = target: T17, APC2474-AA
T17 chain: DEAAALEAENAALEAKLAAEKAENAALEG

APC3323-AA = target: T18, APC3323-AA; details: mean of both orientations
T18 chain: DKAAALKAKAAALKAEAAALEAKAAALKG

APC3354-AA = target: T19, APC3354-AA; details: mean of both orientations
T19 chain: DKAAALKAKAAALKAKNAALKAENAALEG

APC2981-AA = target: T20, APC2981-AA; details: mean of both orientations
T20 chain: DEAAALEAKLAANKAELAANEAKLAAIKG

APC9141-AA = target: T21, APC9141-AA; details: mean of both orientations
T21 chain: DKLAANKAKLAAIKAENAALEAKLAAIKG

APC5531-AA = target: T22, APC5531-AA; details: mean of both orientations
T22 chain: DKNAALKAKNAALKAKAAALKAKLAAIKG

APC8401-AA = target: T23, APC8401-AA; details: mean of both orientations
T23 chain: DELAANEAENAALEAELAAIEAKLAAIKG

4H906-AA = target: T24, 4H906-AA; details: mean of both orientations
T24 chain: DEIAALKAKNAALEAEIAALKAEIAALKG

4H3112-AA = target: T25, 4H3112-AA; details: mean of both orientations
T25 chain: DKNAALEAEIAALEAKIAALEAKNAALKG

4H1636-AA = target: T26, 4H1636-AA; details: mean of both orientations
T26 chain: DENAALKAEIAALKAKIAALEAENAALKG

4H2642-AA = target: T27, 4H2642-AA; details: mean of both orientations
T27 chain: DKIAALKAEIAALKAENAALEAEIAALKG

4H454-AA = target: T28, 4H454-AA; details: mean of both orientations
T28 chain: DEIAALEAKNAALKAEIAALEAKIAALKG

4H3343-AA = target: T29, 4H3343-AA; details: mean of both orientations
T29 chain: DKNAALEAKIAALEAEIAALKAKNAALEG

4H2837-AA = target: T30, 4H2837-AA; details: mean of both orientations
T30 chain: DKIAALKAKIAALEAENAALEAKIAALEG

4H2575-AA = target: T31, 4H2575-AA; details: mean of both orientations
T31 chain: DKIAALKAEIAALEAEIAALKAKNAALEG

4H566-AA = target: T32, 4H566-AA; details: mean of both orientations
T32 chain: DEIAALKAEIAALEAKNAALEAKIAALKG

4H2190-AA = target: T33, 4H2190-AA; details: mean of both orientations
T33 chain: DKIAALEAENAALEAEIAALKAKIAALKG

4H605-AA = target: T34, 4H605-AA; details: mean of both orientations
T34 chain: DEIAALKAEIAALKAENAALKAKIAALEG

4H2466-AA = target: T35, 4H2466-AA; details: mean of both orientations
T35 chain: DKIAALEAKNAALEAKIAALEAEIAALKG

4H3627-AA = target: T36, 4H3627-AA; details: mean of both orientations
T36 chain: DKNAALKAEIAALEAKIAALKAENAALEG

4H2944-AA = target: T37, 4H2944-AA; details: mean of both orientations
T37 chain: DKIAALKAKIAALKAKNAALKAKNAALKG

4H780-AA = target: T38, 4H780-AA; details: mean of both orientations
T38 chain: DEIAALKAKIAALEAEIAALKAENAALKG

4H678-AA = target: T39, 4H678-AA; details: mean of both orientations
T39 chain: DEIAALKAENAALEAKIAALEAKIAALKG

4H2949-AA = target: T40, 4H2949-AA; details: mean of both orientations
T40 chain: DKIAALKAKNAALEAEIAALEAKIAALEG

4H2505-AA = target: T41, 4H2505-AA; details: mean of both orientations
T41 chain: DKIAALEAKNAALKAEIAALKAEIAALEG

4H2165-AA = target: T42, 4H2165-AA; details: mean of both orientations
T42 chain: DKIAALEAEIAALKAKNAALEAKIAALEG

4H317-AA = target: T43, 4H317-AA; details: mean of both orientations
T43 chain: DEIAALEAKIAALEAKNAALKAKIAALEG

4H794-AA = target: T44, 4H794-AA; details: mean of both orientations
T44 chain: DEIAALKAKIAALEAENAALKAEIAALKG

4H1552-AA = target: T45, 4H1552-AA
T45 chain: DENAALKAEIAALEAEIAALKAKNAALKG

4H2078-AA = target: T46, 4H2078-AA; details: mean of both orientations
T46 chain: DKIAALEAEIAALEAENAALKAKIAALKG

4H3606-AA = target: T47, 4H3606-AA; details: mean of both orientations
T47 chain: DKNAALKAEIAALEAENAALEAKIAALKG

4H2883-AA = target: T48, 4H2883-AA; details: mean of both orientations
T48 chain: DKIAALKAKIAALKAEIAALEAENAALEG

4H2617-AA = target: T49, 4H2617-AA; details: mean of both orientations
T49 chain: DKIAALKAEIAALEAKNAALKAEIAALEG

4H234-AA = target: T50, 4H234-AA; details: mean of both orientations
T50 chain: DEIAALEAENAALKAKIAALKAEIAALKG

4H2393-AA = target: T51, 4H2393-AA; details: mean of both orientations
T51 chain: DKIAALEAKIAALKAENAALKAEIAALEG

4H1867-AA = target: T52, 4H1867-AA; details: mean of both orientations
T52 chain: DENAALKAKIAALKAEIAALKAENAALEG

4H429-AA = target: T53, 4H429-AA; details: mean of both orientations
T53 chain: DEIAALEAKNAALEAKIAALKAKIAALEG

4H48-AA = target: T54, 4H48-AA; details: mean of both orientations
T54 chain: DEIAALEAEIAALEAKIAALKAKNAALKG

4H993-AA = target: T55, 4H993-AA; details: mean of both orientations
T55 chain: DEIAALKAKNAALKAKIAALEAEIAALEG

4H3844-AA = target: T56, 4H3844-AA; details: mean of both orientations
T56 chain: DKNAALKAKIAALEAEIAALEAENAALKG

4H342-AA = target: T57, 4H342-AA; details: mean of both orientations
T57 chain: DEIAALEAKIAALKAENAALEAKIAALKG

4H2354-AA = target: T58, 4H2354-AA; details: mean of both orientations
T58 chain: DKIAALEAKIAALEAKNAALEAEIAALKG

4H335-AA = target: T59, 4H335-AA
T59 chain: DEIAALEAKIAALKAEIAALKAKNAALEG

4H2151-AA = target: T60, 4H2151-AA; details: mean of both orientations
T60 chain: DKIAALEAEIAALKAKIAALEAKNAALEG

4H717-AA = target: T61, 4H717-AA; details: mean of both orientations
T61 chain: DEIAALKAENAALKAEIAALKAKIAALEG

4H3427-AA = target: T62, 4H3427-AA; details: mean of both orientations
T62 chain: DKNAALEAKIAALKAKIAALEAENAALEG

4H2277-AA = target: T63, 4H2277-AA; details: mean of both orientations
T63 chain: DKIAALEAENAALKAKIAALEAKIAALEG

4H881-AA = target: T64, 4H881-AA; details: mean of both orientations
T64 chain: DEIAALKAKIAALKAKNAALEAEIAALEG

4H2754-AA = target: T65, 4H2754-AA; details: mean of both orientations
T65 chain: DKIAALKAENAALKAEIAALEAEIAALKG

4H2729-AA = target: T66, 4H2729-AA; details: mean of both orientations
T66 chain: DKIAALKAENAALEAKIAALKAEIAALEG

4H3921-AA = target: T67, 4H3921-AA; details: mean of both orientations
T67 chain: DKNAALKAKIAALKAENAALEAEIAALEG

4H3655-AA = target: T68, 4H3655-AA; details: mean of both orientations
T68 chain: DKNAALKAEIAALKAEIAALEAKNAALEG

interaction score (APC2724-AA): -1.93
interaction score (APC9806-AA): -1.64
interaction score (APC7524-AA): -2.27
interaction score (APC3265-AA): -1.52
interaction score (APC4336-AA): -1.67
interaction score (APC6088-AA): -1.54
interaction score (APC542-AA): -1.4
interaction score (APC2811-AA): -1.58
interaction score (APC5009-AA): -1.39
interaction score (APC2556-AA): -1.49
interaction score (APC3881-AA): -1.83
interaction score (APC2543-AA): -1.61
interaction score (APC9182-AA): -1.69
interaction score (APC8516-AA): -1.93
interaction score (APC4100-AA): -1.97
interaction score (APC9291-AA): -1.71
interaction score (APC2474-AA): -1.69
interaction score (APC3323-AA): -1.45
interaction score (APC3354-AA): -1.35
interaction score (APC2981-AA): -1.45
interaction score (APC9141-AA): -2.1
interaction score (APC5531-AA): -1.71
interaction score (APC8401-AA): -1.53
Binder: DEAAALEAENAALEAKLAAEKAENAALEG [APC2474-AA]

interaction score (4H906-AA): -1.18
interaction score (4H3112-AA): -0.246
interaction score (4H1636-AA): 0.254
interaction score (4H2642-AA): 0.755
interaction score (4H454-AA): -0.754
interaction score (4H3343-AA): 0.455
interaction score (4H2837-AA): -0.547
interaction score (4H2575-AA): -0.206
interaction score (4H566-AA): -0.817
interaction score (4H2190-AA): -0.831
interaction score (4H605-AA): -1.23
interaction score (4H2466-AA): -1.4
interaction score (4H3627-AA): 1.45
interaction score (4H2944-AA): -1.04
interaction score (4H780-AA): 0.0206
interaction score (4H678-AA): -0.931
interaction score (4H2949-AA): -1.42
interaction score (4H2505-AA): -0.681
interaction score (4H2165-AA): -1.44
interaction score (4H317-AA): 0.795
interaction score (4H794-AA): -1.55
interaction score (4H1552-AA): 0.838
interaction score (4H2078-AA): -0.958
interaction score (4H3606-AA): -0.722
interaction score (4H2883-AA): 2.2
interaction score (4H2617-AA): -0.622
interaction score (4H234-AA): 1.6
interaction score (4H2393-AA): -1.36
interaction score (4H1867-AA): 2.28
interaction score (4H429-AA): -0.746
interaction score (4H48-AA): 0.191
interaction score (4H993-AA): -0.53
interaction score (4H3844-AA): 1.43
interaction score (4H342-AA): -0.367
interaction score (4H2354-AA): -1.41
interaction score (4H335-AA): 1.76
interaction score (4H2151-AA): -0.598
interaction score (4H717-AA): -0.949
interaction score (4H3427-AA): 1.64
interaction score (4H2277-AA): -1.3
interaction score (4H881-AA): -0.939
interaction score (4H2754-AA): -0.498
interaction score (4H2729-AA): -0.018
interaction score (4H3921-AA): -0.743
interaction score (4H3655-AA): 1.01
Binder: DENAALKAEIAALEAEIAALKAKNAALKG [4H1552-AA]
